In the experiment the target is T1, soluble Atg1 (Atg1 complex purified from yeast, released from the beads by TEV protease cleavage) (S. cerevisiae, UniProt P53104 1-897).
T1 construct: Atg1 serine-threonine kinase, S. cerevisiae; only Atg1 was detected (anti-Atg1 blot) in the pull-down; also called soluble Atg1 kinase; soluble Atg1 complex
T1 sequence (looked up): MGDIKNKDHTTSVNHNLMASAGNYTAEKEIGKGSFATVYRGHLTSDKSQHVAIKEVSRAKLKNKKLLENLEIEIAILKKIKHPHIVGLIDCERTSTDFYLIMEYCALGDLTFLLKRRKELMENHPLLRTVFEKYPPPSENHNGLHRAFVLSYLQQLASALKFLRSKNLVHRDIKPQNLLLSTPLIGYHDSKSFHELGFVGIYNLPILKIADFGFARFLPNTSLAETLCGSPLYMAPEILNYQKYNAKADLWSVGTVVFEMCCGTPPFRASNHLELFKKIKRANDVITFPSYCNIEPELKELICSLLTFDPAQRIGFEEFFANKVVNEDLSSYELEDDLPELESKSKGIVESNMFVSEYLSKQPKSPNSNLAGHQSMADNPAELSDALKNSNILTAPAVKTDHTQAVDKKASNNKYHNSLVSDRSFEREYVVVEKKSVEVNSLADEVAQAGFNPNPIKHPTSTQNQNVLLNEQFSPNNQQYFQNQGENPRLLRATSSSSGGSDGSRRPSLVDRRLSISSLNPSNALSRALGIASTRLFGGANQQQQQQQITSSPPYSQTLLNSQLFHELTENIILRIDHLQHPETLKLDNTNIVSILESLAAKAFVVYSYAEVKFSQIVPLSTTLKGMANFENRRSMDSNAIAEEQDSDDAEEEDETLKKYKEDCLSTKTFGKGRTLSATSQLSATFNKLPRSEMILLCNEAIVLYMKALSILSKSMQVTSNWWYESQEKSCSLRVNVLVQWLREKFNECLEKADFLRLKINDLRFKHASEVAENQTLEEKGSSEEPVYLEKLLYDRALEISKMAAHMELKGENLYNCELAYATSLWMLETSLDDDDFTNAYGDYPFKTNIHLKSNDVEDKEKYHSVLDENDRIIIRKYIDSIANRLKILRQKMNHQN
The experiment can be described thus: pull-down; GST fusion proteins from E. coli immobilized on beads, incubated with soluble Atg1; bound protein by anti-Atg1 western blotting. Conditions: both partners purified. A general note: A western blot detects proteins with antibodies after separation by electrophoresis.

Where a chain is given by its changes, count along the chain named.

B1: GST-Atg9^757–997 wild-type (domain or fragment, S. cerevisiae, UniProt Q12142 757-997, looked up)
chain: RENSEYVDGLGYVCKYAMFNMKNIDGEDTHSMDEDSLTKKIAVNGSHTLNSKRRSKFTAEDHSDKDLANNKMLQSYVYFMDDYSNSENLTGKYQLPAKKGYPNNEGDSFLNNKYSWRKQFQPGQKPELFRIGKHALGPGHNISPAIYSTRNPGKNWDNNNNGDDIKNGTNNATAKNDDNNGNNDHEYVLTESFLDSGAFPNHDVIDHNKMLNSNYNGNGILNKGGVLGLVKEYYKKSDVGR
notes: Atg9, S. cerevisiae, C-terminal fragment, amino acids 757-997; also called C-terminal fragment of Atg9 (amino acids 757–997); recombinant Atg9 C-terminal fragment; source: E. coli, immobilized on beads
In the case of B1, the binding result is on record as “binds”.

B2: GST-Atg9^757–997 4A mutant (domain or fragment, S. cerevisiae, UniProt Q12142 757-997, looked up)
chain: B1 chain with S46A, S75A, S192A, S213A
notes: Atg9, S. cerevisiae, C-terminal fragment, amino acids 757-997, 4A mutant; source: E. coli, immobilized on beads
Consider B2, for which the binding result was “binds”.
